Experimental data taken from US20220144916A1 (University of Texas, published 2022).

Target: human IgG1 coated on ELISA plates (human, UniProt P01857-1 1-330 = IgG part)
Test: competition ELISA, human IgG1 coat; blocked ligand FLAG-tagged FcγRIIIA, anti-FLAG-HRP [panel B]

B1: HCMV viral Fcγ receptor gp34 (residues 24-182), soluble, strep and FLAG tags (receptor)
chain: SSSNAVEPTKKPLKLANYRATCEDRTRTLVTRLNTSHHSVVWQRYDIYSRYMRRMPPLCIITDAYKETTRQGGAAFACTRQNLTLYNLTVKDTGVYLLQDQYTGDVEAFYLIIHPRSFCRALETRRCFYPGPGRVVVTDSQEADRAIISDLKRQWSGLS
notes: range 24-182
- IC50 (read off the curve): ~0.03 µM
